According to patent US20080175878:

Assays:
[1] = molecular target: blood clotting factor VIII, P00451
[2] = molecular target: single chain tissue plasminogen activator, P00750
[3] = molecular target: blood clotting factor V, P12259
[4] = molecular target: T1, blood clotting factor VII, P08709
T1 chain: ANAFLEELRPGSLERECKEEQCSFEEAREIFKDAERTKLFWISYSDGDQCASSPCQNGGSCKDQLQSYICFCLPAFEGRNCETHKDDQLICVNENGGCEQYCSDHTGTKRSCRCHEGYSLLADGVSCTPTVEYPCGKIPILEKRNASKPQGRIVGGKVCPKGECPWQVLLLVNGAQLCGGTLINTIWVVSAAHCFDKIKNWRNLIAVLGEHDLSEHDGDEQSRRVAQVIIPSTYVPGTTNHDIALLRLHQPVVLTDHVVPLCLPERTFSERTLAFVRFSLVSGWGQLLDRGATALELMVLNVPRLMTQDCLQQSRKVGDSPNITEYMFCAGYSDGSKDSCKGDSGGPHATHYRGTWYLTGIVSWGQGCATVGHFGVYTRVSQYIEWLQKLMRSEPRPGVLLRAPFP

[5] = molecular target: single chain urokinase plasminogen activator, P00749

single chain tissue plasminogen activator, P00750, sequence (P00750 36-562): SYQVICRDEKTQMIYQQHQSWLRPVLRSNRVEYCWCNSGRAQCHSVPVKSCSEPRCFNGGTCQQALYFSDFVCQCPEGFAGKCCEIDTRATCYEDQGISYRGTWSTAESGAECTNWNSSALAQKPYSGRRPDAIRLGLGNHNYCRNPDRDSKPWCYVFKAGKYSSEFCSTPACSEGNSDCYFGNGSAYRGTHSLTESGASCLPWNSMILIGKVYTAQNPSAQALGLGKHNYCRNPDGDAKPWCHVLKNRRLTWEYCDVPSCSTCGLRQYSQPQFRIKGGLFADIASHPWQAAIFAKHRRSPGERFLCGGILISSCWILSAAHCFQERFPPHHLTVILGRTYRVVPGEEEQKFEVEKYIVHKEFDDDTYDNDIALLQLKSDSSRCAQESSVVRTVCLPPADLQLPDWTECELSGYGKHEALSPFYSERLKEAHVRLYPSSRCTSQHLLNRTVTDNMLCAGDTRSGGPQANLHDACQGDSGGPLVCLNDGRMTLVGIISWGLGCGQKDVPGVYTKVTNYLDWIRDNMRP
blood clotting factor VIII, P00451, sequence (P00451 whole entry, looked up): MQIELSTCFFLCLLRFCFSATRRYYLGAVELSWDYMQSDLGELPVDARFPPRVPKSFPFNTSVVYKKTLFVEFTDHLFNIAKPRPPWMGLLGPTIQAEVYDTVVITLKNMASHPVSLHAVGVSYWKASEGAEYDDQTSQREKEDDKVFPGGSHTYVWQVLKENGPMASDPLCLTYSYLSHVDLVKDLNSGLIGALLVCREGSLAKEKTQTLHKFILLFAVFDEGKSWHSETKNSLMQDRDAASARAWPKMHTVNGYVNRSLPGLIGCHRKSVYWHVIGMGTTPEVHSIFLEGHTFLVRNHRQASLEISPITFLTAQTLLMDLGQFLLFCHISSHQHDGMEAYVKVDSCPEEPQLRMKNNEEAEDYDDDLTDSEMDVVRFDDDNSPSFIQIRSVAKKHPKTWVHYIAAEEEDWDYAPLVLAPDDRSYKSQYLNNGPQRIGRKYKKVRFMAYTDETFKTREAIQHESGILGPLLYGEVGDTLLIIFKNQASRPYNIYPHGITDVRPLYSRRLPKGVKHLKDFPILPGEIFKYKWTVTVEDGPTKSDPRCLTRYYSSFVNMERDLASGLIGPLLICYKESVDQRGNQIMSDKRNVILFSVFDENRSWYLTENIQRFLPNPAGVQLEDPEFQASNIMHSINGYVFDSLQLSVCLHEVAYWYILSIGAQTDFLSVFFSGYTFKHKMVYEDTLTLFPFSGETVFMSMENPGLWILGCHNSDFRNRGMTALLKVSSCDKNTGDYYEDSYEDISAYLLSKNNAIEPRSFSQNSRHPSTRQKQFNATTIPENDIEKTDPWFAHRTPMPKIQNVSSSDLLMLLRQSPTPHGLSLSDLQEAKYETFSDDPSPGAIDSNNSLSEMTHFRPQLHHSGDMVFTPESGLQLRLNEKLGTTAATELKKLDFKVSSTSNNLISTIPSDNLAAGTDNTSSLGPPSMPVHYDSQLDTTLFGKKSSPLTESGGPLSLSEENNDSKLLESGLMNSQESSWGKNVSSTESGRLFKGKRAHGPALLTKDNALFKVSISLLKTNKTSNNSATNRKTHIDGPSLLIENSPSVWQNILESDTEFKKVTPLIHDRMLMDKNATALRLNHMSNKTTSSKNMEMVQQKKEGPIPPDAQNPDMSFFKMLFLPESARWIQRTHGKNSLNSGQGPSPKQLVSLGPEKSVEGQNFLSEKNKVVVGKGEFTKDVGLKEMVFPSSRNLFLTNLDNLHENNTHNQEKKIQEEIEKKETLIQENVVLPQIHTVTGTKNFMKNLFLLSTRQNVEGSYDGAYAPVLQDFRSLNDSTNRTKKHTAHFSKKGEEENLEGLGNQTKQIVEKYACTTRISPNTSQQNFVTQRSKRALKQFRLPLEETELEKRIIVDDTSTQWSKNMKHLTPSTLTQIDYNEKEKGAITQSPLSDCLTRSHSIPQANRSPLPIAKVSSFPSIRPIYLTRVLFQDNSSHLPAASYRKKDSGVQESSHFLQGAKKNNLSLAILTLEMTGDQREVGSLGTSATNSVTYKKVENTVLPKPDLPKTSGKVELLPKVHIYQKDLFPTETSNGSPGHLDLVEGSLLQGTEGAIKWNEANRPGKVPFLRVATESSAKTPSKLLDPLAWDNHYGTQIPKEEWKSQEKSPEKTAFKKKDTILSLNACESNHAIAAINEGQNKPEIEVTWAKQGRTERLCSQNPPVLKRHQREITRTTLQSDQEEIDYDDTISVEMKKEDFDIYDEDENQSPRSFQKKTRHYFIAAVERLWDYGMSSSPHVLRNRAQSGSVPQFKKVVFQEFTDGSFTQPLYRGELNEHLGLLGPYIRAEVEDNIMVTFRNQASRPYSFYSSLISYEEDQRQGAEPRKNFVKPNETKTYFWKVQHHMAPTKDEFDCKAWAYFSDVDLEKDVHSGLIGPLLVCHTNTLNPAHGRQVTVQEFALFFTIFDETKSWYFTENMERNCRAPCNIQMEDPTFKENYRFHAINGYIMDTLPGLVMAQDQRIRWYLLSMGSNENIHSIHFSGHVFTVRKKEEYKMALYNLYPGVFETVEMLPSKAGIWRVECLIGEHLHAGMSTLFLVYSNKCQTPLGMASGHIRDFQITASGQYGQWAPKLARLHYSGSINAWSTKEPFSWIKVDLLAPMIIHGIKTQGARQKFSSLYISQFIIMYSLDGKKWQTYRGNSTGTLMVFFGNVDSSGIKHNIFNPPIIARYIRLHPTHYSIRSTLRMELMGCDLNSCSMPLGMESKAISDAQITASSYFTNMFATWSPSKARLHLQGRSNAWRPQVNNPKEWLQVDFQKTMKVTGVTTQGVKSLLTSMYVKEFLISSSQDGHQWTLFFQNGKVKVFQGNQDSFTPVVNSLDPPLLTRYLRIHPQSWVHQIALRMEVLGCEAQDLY
blood clotting factor V, P12259, sequence (P12259 29-2224): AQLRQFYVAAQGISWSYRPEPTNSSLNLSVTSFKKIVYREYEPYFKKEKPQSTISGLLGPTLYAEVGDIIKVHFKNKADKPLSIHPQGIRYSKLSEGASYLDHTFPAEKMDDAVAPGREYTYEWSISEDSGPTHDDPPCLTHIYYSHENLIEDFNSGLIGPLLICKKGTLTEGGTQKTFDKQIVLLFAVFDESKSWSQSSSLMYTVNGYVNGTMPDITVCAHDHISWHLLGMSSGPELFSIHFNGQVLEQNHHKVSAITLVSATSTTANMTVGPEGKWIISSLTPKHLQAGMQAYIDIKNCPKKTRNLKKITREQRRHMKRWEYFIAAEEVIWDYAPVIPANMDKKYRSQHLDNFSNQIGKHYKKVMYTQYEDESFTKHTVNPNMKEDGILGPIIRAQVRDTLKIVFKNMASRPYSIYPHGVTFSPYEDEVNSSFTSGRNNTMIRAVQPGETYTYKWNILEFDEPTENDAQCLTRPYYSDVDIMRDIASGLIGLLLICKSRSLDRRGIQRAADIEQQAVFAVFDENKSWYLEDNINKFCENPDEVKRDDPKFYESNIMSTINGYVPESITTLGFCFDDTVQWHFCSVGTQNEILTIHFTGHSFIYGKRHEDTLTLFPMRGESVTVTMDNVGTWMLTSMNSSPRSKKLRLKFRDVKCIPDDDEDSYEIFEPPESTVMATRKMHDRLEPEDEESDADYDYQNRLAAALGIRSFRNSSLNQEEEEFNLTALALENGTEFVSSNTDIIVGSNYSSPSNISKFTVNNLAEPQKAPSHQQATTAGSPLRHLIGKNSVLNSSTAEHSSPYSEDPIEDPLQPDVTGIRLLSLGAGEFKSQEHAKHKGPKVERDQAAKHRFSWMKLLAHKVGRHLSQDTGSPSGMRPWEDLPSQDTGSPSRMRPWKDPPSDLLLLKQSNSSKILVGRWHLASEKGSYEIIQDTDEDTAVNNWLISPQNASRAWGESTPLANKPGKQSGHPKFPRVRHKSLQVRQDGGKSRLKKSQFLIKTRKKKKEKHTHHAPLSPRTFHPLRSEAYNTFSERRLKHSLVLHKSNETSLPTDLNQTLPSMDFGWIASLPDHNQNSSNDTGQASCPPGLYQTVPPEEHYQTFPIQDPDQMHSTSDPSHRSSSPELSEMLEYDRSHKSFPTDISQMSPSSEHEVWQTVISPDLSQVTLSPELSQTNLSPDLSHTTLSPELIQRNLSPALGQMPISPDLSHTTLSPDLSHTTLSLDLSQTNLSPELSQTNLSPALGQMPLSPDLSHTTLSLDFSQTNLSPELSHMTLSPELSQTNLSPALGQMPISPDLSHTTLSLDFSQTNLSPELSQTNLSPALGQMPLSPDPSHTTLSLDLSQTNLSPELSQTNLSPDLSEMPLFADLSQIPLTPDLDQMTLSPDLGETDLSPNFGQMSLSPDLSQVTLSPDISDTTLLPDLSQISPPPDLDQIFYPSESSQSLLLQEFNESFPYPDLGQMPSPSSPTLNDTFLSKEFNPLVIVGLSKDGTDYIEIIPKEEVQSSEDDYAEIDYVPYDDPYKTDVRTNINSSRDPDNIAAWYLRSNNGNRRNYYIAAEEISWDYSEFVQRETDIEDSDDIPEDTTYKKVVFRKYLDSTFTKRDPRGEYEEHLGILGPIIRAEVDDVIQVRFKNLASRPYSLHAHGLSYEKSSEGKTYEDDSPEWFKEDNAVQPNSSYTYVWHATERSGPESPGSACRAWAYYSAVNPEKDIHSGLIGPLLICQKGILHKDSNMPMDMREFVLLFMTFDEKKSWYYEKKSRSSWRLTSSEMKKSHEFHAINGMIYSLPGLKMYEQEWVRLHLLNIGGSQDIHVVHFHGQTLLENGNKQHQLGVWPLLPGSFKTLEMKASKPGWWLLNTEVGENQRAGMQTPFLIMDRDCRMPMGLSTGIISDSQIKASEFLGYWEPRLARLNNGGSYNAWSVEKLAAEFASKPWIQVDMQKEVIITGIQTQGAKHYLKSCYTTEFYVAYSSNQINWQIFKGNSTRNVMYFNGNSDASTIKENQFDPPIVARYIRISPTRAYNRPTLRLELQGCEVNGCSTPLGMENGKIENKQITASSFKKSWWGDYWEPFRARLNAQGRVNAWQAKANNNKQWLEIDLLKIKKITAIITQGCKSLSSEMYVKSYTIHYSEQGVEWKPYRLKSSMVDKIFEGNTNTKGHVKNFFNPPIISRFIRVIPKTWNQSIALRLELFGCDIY

B1: protease for activating the blood clotting factor VII (protein)
chain 1: LLESLDPDWTPDQYDYSYEDYNQEENTSSTLTHAENPDWYYTEDQADPCQPNPCEHGGDCLVHGSTFTCSCLAPFSGNKCQKVQNTCKDNPCGRGQCLITQSPPYYRCVCKHPYTGPSCSQVVPVCRPNPCQNGATCSRHKRRSKFTCACPDQFKGKFCEIGSDDCYVGDGYSYRGKMNRTVNQHACLYWNSHLLLQENYNMFMEDAETHGIGEHNFCRNPDADEKPWCFIKVTNDKVKWEYCDVSACSAQDVAYPEESPTEPSTKLPGFDSCGKTEIAERKIKR
chain 2: not shown
B1 was tested, and the FVIII activity (% of control without protease), FVIII essentially free of vWF, protease 10 µg/ml, CaCl2, 0 min [1] was 97%, the FVIII activity (% of control without protease), FVIII essentially free of vWF, protease 10 µg/ml, CaCl2, 5 min [1] was 27% and the FVIII activity (% of control without protease), FVIII essentially free of vWF, protease 10 µg/ml, CaCl2, 10 min [1] was 11%. The FVIII activity (% of control without protease), FVIII essentially free of vWF, protease 10 µg/ml, CaCl2, 20 min [1] was < 1%, the FVIII activity (% of control without protease), FVIII solution containing vWF, protease 10 µg/ml, CaCl2, 0 min [1] was 98% and the FVIII activity (% of control without protease), FVIII solution containing vWF, protease 10 µg/ml, CaCl2, 5 min [1] was 16%. The FVIII activity (% of control without protease), FVIII solution containing vWF, protease 10 µg/ml, CaCl2, 10 min [1] was 14%, the FVIII activity (% of control without protease), FVIII solution containing vWF, protease 10 µg/ml, CaCl2, 20 min [1] was 1% and the “residual active FVIII (chromogenic FVIII test), 10 min, protease 0.1, 1 and 10 µg/ml” value [1] was “As the protease concentration increased, correspondingly more FVIII was inactivated”. The “residual active FVIII (chromogenic FVIII test), protease 10 µg/ml, incubation time varied” value [1] was “A marked reduction in the residual concentration of active FVIII was seen as the length of incubation increased”, the “share of FVIII spared from the protease at calcium below 0.5 mM” value [1] was “the percentage spared is more than 60%” and the “share of FVIII spared from the protease at calcium below 1 mM” value [1] was “approx. 50% of the FVIII is then spared”. The PA activity (S-2444), 20 min at 37° C., heparin 100 IU/ml, FVII activator 50 µg/ml [2] was 33.6 Δ mIU/min, the PA activity (S-2444), 20 min at 37° C., heparin 100 IU/ml, FVII activator 100 µg/ml [2] was 51 Δ mIU/min and the PA activity (S-2444), 20 min at 37° C., heparin 100 IU/ml, FVII activator 200 µg/ml [2] was 71.9 Δ mIU/min. For the same protein, the PA activity (S-2444), 20 min at 37° C., stimulant: CaCl2 [2] was 25.3 Δ mIU/min, the PA activity (S-2444), 20 min at 37° C., stimulant: heparin [2] was 63.8 Δ mIU/min and the PA activity (S-2444), 20 min at 37° C., stimulant: none [2] was 5.9 Δ mIU/min. The Resulting PA activity (S-2444), sctPA 100 µg/ml, incubation 1 min (FVII activator concentration not given) [2] was 10.2 Δ mIU/min, the Resulting PA activity (S-2444), sctPA 100 µg/ml, incubation 2 min (FVII activator concentration not given) [2] was 16.8 Δ mIU/min and the Resulting PA activity (S-2444), sctPA 100 µg/ml, incubation 5 min (FVII activator concentration not given) [2] was 38.8 Δ mIU/min. The Resulting PA activity (S-2444), sctPA 100 µg/ml, incubation 10 min (FVII activator concentration not given) [2] was 60.2 Δ mIU/min, the Resulting PA activity (S-2444), sctPA 100 µg/ml, incubation 20 min (FVII activator concentration not given) [2] was 73.3 Δ mIU/min and the Residual FV activity, protease 10 µg/ml, incubation 20 min [3] was 100. For the same protein, the Residual FV activity, protease 10 µg/ml, incubation column headed 0 (min) [3] was 93, the Residual FV activity, protease 10 µg/ml, incubation column headed 0 (min), second column [3] was 91 and the Residual FV activity, protease 30 µg/ml, incubation 20 min [3] was 28. The Residual FV activity, protease 30 µg/ml, incubation column headed 0 (min) [3] was 100, the Residual FV activity, protease 30 µg/ml, incubation column headed 0 (min), second column [3] was 93 and the Residual FV activity, protease 100 µg/ml, incubation 20 min [3] was 13. For the same protein, the Residual FV activity, protease 100 µg/ml, incubation column headed 0 (min) [3] was 100, the Residual FV activity, protease 100 µg/ml, incubation column headed 0 (min), second column [3] was 29 and the FVII activation factor (x control), protease solution diluted 1:5, 5 min at RT (x times control) [4] was 2.6. For the same protein, the FVII activation factor (x control), protease solution diluted 1:10, 5 min at RT (x times control) [4] was 2, the FVII activation factor (x control), protease solution diluted 1:20, 5 min at RT (x times control) [4] was 1.6 and the FVII activation factor, 0.2 IU FVII/ml + 1:10 protease solution, incubation 0 min (x times control) [4] was 1. The FVII activation factor, 0.2 IU FVII/ml + 1:10 protease solution, incubation 2.5 min (x times control) [4] was 1.3, the FVII activation factor, 0.2 IU FVII/ml + 1:10 protease solution, incubation 5.0 min (x times control) [4] was 2 and the FVII activation factor, 0.2 IU FVII/ml + 1:10 protease solution, incubation 10.0 min (x times control) [4] was 2.8. For the same protein, the FVII activation factor, 0.2 IU FVII/ml + 1:10 protease solution, incubation 40.0 min (x times control) [4] was < 3.8, the “FVIIa content (Staclot FVIIa-rTF test) after protease + FVII, 10 min, then aprotinin” value [4] was 18 mlU of FVIIa/ml and the “FVIIa formed by the action of the protease, after subtracting the base value” [4] was 8 mlU of FVIIa/ml have therefore been formed by the action of the protease. The Resulting PA activity (S-2444), no stimulant, 2 min, FVII activator 2 µg/ml [5] was 25 Δ mIU/min, the Resulting PA activity (S-2444), no stimulant, 2 min, FVII activator 5 µg/ml [5] was 60 Δ mIU/min and the Resulting PA activity (S-2444), no stimulant, 2 min, FVII activator 10 µg/ml [5] was 117 Δ mIU/min. For the same protein, the Resulting PA activity (S-2444), no stimulant, 5 min, FVII activator 2 µg/ml [5] was 79 Δ mIU/min, the Resulting PA activity (S-2444), no stimulant, 5 min, FVII activator 5 µg/ml [5] was 179 Δ mIU/min and the Resulting PA activity (S-2444), no stimulant, 5 min, FVII activator 10 µg/ml [5] was 165 Δ mIU/min. The Resulting PA activity (S-2444), no stimulant, 10 min, FVII activator 2 µg/ml [5] was 186 Δ mIU/min, the Resulting PA activity (S-2444), no stimulant, 10 min, FVII activator 5 µg/ml [5] was 449 Δ mIU/min and the Resulting PA activity (S-2444), no stimulant, 10 min, FVII activator 10 µg/ml [5] was 517 Δ mIU/min. For the same protein, the Resulting PA activity (S-2444), stimulant CaCl2, 2 min, FVII activator 2 µg/ml [5] was 255 Δ mIU/min, the Resulting PA activity (S-2444), stimulant CaCl2, 2 min, FVII activator 5 µg/ml [5] was 370 Δ mIU/min and the Resulting PA activity (S-2444), stimulant CaCl2, 2 min, FVII activator 10 µg/ml [5] was 401 Δ mIU/min. For the same protein, the Resulting PA activity (S-2444), stimulant CaCl2, 5 min, FVII activator 2 µg/ml [5] was 338 Δ mIU/min, the Resulting PA activity (S-2444), stimulant CaCl2, 5 min, FVII activator 5 µg/ml [5] was 424 Δ mIU/min and the Resulting PA activity (S-2444), stimulant CaCl2, 5 min, FVII activator 10 µg/ml [5] was 438 Δ mIU/min. For the same protein, the Resulting PA activity (S-2444), stimulant CaCl2, 10 min, FVII activator 2 µg/ml [5] was 416 Δ mIU/min, the Resulting PA activity (S-2444), stimulant CaCl2, 10 min, FVII activator 5 µg/ml [5] was 445 Δ mIU/min and the Resulting PA activity (S-2444), stimulant CaCl2, 10 min, FVII activator 10 µg/ml [5] was 448 Δ mIU/min. For the same protein, the Resulting PA activity (S-2444), stimulant heparin, 2 min, FVII activator 2 µg/ml [5] was 190 Δ mIU/min, the Resulting PA activity (S-2444), stimulant heparin, 2 min, FVII activator 5 µg/ml [5] was 332 Δ mIU/min and the Resulting PA activity (S-2444), stimulant heparin, 2 min, FVII activator 10 µg/ml [5] was 425 Δ mIU/min. For the same protein, the Resulting PA activity (S-2444), stimulant heparin, 5 min, FVII activator 2 µg/ml [5] was 330 Δ mIU/min, the Resulting PA activity (S-2444), stimulant heparin, 5 min, FVII activator 5 µg/ml [5] was 455 Δ mIU/min and the Resulting PA activity (S-2444), stimulant heparin, 5 min, FVII activator 10 µg/ml [5] was 458 Δ mIU/min. For the same protein, the Resulting PA activity (S-2444), stimulant heparin, 10 min, FVII activator 2 µg/ml [5] was 417 Δ mIU/min, the Resulting PA activity (S-2444), stimulant heparin, 10 min, FVII activator 5 µg/ml [5] was 462 Δ mIU/min and the Resulting PA activity (S-2444), stimulant heparin, 10 min, FVII activator 10 µg/ml [5] was 460 Δ mIU/min.
